Measured values published in article PMC9776393, “Gold Nanoparticles-MWCNT Based Aptasensor for Early Diagnosis of Prostate Cancer”.

Target: prostate-specific antigen (PSA) (human (semen), UniProt P07288 25-261)
Assay: electrochemical aptasensor (DPV); MCH-blocked MWCNT/AuNP electrode; LoD 1 pg/mL, linear 1-100 ng/mL (abstract) or 0.001-100 ng/mL (Table 2); PBS pH 7.2, [Fe(CN)6]3-/4- redox probe, 5 min binding; aptamer heated to 95 C and cooled, immobilized at room temperature with MgCl2 and NaCl; binding temperature not stated
Conditions: protein: commercial

Sequence of prostate-specific antigen (PSA) (P07288 25-261): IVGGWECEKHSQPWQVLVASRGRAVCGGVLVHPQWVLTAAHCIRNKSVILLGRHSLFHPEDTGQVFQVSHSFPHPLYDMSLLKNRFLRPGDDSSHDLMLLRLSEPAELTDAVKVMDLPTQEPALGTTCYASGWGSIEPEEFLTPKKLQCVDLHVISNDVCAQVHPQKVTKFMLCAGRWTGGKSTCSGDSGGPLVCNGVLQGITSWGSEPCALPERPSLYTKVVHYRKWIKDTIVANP

TTTTTAATTAAAGCTCGCCATCAAATAGCTTT (ssDNA, 5'-HS-(CH2)6 thiol) [PSA aptamer]
binding result: binds
